Data as given in publication PMC8280134, “Broadly cross-reactive human antibodies that inhibit genogroup I and II noroviruses” (Nature Communications, 2021).

Tests used:
Test in all cases: ELISA; indirect ELISA; VLP coated at 1 µg/mL on 384-well plates at 4 °C overnight, blocked with 5% nonfat dry milk in PBS with 0.05% Tween-20; mAb normalised for antigen-binding sites, from 500 nM with 11 serial dilutions; detection with anti-κ or -λ secondary antibodies
Details in all cases: both partners purified
[1] = biological target: T1, HuNoV GII.13 virus-like particle (Norovirus Hu/GII.13/VA173/2010/USA, strain)
T1 construct: also called GII.13 VLP
T1 chain: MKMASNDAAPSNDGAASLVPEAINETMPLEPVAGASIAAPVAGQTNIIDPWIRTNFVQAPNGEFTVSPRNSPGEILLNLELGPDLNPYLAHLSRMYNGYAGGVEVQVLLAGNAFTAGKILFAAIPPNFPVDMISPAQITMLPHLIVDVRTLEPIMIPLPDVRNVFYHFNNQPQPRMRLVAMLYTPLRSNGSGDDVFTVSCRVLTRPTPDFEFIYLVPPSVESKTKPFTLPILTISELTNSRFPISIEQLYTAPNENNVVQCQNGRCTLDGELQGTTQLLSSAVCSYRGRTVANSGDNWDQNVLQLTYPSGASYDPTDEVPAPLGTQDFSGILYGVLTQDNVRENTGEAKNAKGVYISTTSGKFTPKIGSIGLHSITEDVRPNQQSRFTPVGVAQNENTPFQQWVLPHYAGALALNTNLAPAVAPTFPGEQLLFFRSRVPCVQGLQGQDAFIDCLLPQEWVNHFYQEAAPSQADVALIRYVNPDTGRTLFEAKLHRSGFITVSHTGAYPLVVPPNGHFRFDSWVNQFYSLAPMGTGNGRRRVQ

[2] = biological target: T2, HuNoV GII.17 virus-like particle (Norovirus …, strain)
T2 construct: also called GII.17 VLP
T2 chain: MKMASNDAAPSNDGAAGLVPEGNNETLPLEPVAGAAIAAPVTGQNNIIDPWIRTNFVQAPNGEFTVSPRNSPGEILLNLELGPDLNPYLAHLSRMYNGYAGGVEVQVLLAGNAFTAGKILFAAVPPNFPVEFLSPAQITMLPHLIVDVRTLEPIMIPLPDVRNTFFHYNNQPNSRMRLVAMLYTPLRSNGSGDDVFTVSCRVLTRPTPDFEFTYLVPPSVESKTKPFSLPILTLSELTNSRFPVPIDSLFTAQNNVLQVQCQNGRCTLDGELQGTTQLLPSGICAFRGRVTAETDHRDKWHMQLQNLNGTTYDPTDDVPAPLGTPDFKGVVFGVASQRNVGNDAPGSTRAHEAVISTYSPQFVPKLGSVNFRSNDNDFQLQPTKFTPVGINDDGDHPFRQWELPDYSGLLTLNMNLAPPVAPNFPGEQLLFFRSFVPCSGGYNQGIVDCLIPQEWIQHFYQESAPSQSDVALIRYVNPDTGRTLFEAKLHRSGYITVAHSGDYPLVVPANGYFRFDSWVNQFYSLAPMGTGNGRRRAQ

[3] = biological target: T3, HuNoV GII.3 virus-like particle (Norovirus Hu/GII.3/TCH-104/USA/2002 …, UniProt S4VLU9, strain)
T3 construct: also called GII.3 VLP

[4] = biological target: T4, HuNoV GII.6 virus-like particle (Norwalk-like virus …, UniProt Q918A7, strain)
T4 construct: also called GII.6 VLP

Measured: binding result

B1: NORO-320 IgA (hybridoma-secreted dimeric IgA) (antibody, V domains shown)
VH: QVQLVQSGPEVKKPGSSVKVSCKASGGTVSSYAISWVRQAPGQGLEWMGGIIPIFDTTNYAQKFQGRVTITADESTGTSDMELSSLRSEDTAVYYCARDRVPSYSPSRRFSTKGAMWGKYGMDVWGQGTLVTVSS
VL: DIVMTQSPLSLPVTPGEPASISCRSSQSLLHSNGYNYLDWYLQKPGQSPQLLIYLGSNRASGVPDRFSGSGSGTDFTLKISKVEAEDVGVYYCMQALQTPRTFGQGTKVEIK
notes: also called mAb NORO-320; Hyb dimeric IgA
binds: all assays above
